Paper PMC4935975, “A neomorphic cancer cell-specific role of MAGE-A4 in trans-lesion synthesis” (Nature Communications, 2016)

Target: T1, Hexa-histidine-tagged MAGE-A4 (human (open reading frame amplified …, UniProt P43358 1-317))
T1 construct: MAGE-A4, full-length recombinant; the MAGE-A4 open reading frame was PCR amplified from H1299 genomic DNA; Expressed from pRSET; also called His-MAGE-A4; 6 × His–MAGE-A4; source: E. coli BL21 (DE3), purified
T1 sequence (looked up): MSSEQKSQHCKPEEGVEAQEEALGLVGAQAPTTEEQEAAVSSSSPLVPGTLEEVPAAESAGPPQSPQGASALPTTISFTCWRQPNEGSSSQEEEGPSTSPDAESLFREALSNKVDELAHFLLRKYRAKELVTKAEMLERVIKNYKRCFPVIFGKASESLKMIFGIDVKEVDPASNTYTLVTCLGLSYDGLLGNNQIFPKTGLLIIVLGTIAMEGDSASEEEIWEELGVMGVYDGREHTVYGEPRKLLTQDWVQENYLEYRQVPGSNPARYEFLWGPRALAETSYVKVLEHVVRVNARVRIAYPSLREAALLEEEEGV
Assay: pull-down; recombinant 6 × His–MAGE-A4 (1 μg) incubated in 1 ml CSK+1% BSA with GST or GST–RAD18 (0.3 μg), 2 h at 4 °C; glutathione sepharose beads; washed three times in CSK+1% BSA; immunoblot
Settings: both partners purified

- binding result: binds
B1: GST–RAD18 267-402 (domain or fragment, UniProt Q9NS91 267-402, looked up)
chain: IQGNKQQLIKRHQEFVHMYNAQCDALHPKSAAEIVREIENIEKTRMRLEASKLNESVMVFTKDQTEKEIDEIHSKYRKKHKSEFQLLVDQARKGYKKIAGMSQKTVTITKEDESTEKLSSVCMGQEDNMTSVTNHF
notes: Expressed from pGEX2T; source: E. coli BL21 (DE3), purified
